Data from patent publication US20200262877A1, “ION CHANNEL-BINDING PEPTIDES AND METHODS OF USE THEREOF” (priority 2017, published 2020).

Legend:
TRPA1 = molecular target: T1, TRPA1 (Homo sapiens, UniProt O75762); assay: Ion channel panel (IonWorks Barracuda): TRPA1; format: cell-based; conditions: 100% = no change, <100% = inhibition
T1 construct: host or cells: HEK293 or CHO
Procedure, shortened: (§1)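 Transfected HEK293 or CHO cells were exposed for at least 5 min to peptides at 200 nM and 20 μM final, tested in duplicate, in HEPES-buffered physiological saline. Activation was taken as peptide-plus-agonist current over control current ×100, and inhibition as 1 minus that ratio ×100. Each channel's control was its own reference compound.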

Kir2.1 = molecular target: T2, Kir2.1 (Homo sapiens, UniProt P63252); assay: Ion channel panel (IonWorks Barracuda): Kir2.1; format: cell-based; conditions: 100% = no change, <100% = inhibition
T2 construct: host or cells: HEK293 or CHO
Procedure, shortened: as §1

GABA = assay: Ion channel panel (IonWorks Barracuda): GABA; format: cell-based; conditions: 100% = no change, <100% = inhibition
Procedure, shortened: as §1

Nav1.7 = molecular target: T3, Nav1.7 (Homo sapiens, UniProt Q15858); assay: cell-based; format: cell-based; conditions: 100% = no change; for Activity of Nav1.7 with peptide, expressed as a percentage of the reference compound: peptide at 0.2 μM; for Activity of Nav1.7 with peptide (percentage of the reference compound): peptide at 20 μM
T3 construct: host or cells: HEK293 or CHO

Cav2.1 = molecular target: T4, Cav2.1 (Homo sapiens, UniProt O00555); assay: cell-based; conditions: 100% = no change, <100% = inhibition
T4 construct: host or cells: HEK293 or CHO
Procedure, shortened: as §1

Kv2.1 = molecular target: T5, Kv2.1 (Homo sapiens, UniProt Q14721); assay: cell-based; conditions: 100% = no change, <100% = inhibition
T5 construct: host or cells: HEK293 or CHO
Procedure, shortened: as §1

Cav2.2 = molecular target: T6, Cav2.2 (Homo sapiens, UniProt Q00975); assay: cell-based; conditions: 100% = no change, <100% = inhibition
T6 construct: host or cells: HEK293 or CHO
Procedure, shortened: as §1

Nav1.5 = Nav1.5 (Homo sapiens, UniProt Q14524); assay: in vitro; conditions: 100% = no change; for Activity of Nav1.5 with peptide, expressed as a percentage of the reference compound: peptide at 0.2 μM; for Activity of Nav1.5 with peptide (percentage of the reference compound): peptide at 20 μM
Procedure, shortened: as §1

hERG = hERG (Homo sapiens, UniProt Q12809); assay: in vitro; conditions: 100% = no change, <100% = inhibition
Procedure, shortened: as §1

α3β4 = molecular target: T7, α3β4 (Homo sapiens, UniProt P30926+P32297); assay: Ion channel panel (IonWorks Barracuda): α3β4; format: cell-based; conditions: 100% = no change, <100% = inhibition
T7 construct: host or cells: HEK293 or CHO
Procedure, shortened: as §1

NR2B = molecular target: T8, NR2B (Homo sapiens, UniProt Q13224); assay: Ion channel panel (IonWorks Barracuda): NR2B; format: cell-based; conditions: 100% = no change, <100% = inhibition
T8 construct: host or cells: HEK293 or CHO
Procedure, shortened: as §1

TRPV1 = molecular target: T9, TRPV1 (Homo sapiens, UniProt Q8NER1); assay: Ion channel panel (IonWorks Barracuda): TRPV1; format: cell-based; conditions: 100% = no change, <100% = inhibition
T9 construct: host or cells: HEK293 or CHO
Procedure, shortened: as §1

Kv1.2 = molecular target: T10, Kv1.2 (Homo sapiens, UniProt P16389); assay: cell-based; format: cell-based; conditions: 100% = no change, <100% = inhibition
T10 construct: host or cells: HEK293 or CHO
Procedure, shortened: as §1

Kv1.3 = molecular target: T11, Kv1.3 (Homo sapiens, UniProt P22001); assay: cell-based; format: cell-based; conditions: 100% = no change, <100% = inhibition
T11 construct: host or cells: HEK293 or CHO
Procedure, shortened: as §1

Kv1.1 = molecular target: T12, Kv1.1 (Homo sapiens, UniProt Q09470); assay: cell-based; format: cell-based; conditions: 100% = no change, <100% = inhibition
T12 construct: host or cells: HEK293 or CHO
Procedure, shortened: as §1

5HT3a = molecular target: T13, 5HT3a (Homo sapiens, UniProt P46098); assay: Ion channel panel (IonWorks Barracuda): 5HT3a; format: cell-based
T13 construct: host or cells: HEK293 or CHO
T13 sequence (P46098 whole entry, looked up): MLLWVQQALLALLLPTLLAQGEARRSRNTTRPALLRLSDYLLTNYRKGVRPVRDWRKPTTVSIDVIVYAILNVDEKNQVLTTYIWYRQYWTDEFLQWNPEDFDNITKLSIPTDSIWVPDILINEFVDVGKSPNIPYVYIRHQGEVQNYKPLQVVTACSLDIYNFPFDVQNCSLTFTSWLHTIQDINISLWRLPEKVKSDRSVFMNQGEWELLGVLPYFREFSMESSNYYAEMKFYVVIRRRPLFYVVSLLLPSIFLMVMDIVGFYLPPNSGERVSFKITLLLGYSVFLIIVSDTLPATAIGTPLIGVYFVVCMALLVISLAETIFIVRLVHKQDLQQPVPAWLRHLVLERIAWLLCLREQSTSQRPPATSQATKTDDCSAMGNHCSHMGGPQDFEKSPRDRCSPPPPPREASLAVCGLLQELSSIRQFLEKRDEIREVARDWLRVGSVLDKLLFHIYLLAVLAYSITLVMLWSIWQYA
Procedure, shortened: as §1

α4β2 = molecular target: T14, α4β2 (Homo sapiens, UniProt P17787+P43681); assay: Ion channel panel (IonWorks Barracuda): α4β2; format: cell-based; conditions: 100% = no change, <100% = inhibition
T14 construct: host or cells: HEK293 or CHO
Procedure, shortened: as §1

NR2A = molecular target: T15, NR2A (Homo sapiens, UniProt Q12879); assay: Ion channel panel (IonWorks Barracuda): NR2A; format: cell-based; conditions: 100% = no change, <100% = inhibition
T15 construct: host or cells: HEK293 or CHO
Procedure, shortened: as §1

[1] = first of two Nav1.7 columns (probably TP1)
[2] = second of two Nav1.7 columns (probably TP2)
[3] = first of two Nav1.5 columns (probably TP1)
[4] = second of two Nav1.5 columns (probably TP2)

Sequence of Nav1.5 (Q14524 whole entry): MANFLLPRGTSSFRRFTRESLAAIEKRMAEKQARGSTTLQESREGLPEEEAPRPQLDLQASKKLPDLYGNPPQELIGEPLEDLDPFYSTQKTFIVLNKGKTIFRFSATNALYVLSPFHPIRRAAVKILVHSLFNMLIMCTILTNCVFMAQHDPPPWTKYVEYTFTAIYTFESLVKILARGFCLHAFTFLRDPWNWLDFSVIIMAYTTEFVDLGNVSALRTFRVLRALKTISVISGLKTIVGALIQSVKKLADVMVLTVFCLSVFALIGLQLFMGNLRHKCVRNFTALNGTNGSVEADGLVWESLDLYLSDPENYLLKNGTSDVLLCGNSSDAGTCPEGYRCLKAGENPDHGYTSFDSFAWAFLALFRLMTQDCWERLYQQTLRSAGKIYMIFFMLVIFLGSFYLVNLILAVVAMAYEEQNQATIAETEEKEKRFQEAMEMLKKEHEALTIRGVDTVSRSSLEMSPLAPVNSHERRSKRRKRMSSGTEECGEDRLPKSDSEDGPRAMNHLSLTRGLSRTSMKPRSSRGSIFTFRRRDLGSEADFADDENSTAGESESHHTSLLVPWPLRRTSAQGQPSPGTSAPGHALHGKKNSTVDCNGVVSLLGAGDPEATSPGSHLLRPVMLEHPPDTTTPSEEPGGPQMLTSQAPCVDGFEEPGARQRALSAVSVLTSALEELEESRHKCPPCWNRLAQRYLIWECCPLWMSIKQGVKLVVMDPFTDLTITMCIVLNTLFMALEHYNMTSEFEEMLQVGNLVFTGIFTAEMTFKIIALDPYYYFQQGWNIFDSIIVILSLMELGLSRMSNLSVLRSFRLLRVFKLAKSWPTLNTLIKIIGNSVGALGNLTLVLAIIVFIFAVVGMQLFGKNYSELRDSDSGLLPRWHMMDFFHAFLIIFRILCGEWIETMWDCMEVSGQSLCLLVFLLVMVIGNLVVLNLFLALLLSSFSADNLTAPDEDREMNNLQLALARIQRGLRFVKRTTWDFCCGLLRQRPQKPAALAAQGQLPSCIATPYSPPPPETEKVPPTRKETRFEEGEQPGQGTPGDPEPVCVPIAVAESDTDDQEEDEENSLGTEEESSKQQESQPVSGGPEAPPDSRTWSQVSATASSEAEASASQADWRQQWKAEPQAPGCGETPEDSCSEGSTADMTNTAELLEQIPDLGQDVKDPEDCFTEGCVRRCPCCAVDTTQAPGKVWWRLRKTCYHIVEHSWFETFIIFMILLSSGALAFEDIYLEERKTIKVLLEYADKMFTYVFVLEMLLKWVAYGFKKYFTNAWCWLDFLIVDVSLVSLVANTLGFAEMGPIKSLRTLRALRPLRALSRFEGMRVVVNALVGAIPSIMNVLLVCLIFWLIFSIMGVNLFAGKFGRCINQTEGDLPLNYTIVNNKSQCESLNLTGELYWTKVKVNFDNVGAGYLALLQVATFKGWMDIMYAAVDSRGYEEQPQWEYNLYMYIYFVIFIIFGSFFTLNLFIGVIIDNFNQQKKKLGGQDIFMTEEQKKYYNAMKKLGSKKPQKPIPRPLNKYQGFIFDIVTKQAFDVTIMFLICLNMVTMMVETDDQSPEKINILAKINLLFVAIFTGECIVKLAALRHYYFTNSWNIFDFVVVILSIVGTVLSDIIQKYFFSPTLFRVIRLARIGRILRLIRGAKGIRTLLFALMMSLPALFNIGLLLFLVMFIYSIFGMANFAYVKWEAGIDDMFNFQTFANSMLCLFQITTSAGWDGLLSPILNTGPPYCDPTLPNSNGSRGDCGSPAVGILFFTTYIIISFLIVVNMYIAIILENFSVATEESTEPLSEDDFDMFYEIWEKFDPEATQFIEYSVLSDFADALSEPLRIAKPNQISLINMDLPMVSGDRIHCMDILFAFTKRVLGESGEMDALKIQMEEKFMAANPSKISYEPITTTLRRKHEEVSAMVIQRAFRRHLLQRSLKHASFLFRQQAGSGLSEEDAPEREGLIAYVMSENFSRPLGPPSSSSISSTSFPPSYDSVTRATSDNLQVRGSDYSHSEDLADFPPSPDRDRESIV
T3 sequence (Q15858 whole entry): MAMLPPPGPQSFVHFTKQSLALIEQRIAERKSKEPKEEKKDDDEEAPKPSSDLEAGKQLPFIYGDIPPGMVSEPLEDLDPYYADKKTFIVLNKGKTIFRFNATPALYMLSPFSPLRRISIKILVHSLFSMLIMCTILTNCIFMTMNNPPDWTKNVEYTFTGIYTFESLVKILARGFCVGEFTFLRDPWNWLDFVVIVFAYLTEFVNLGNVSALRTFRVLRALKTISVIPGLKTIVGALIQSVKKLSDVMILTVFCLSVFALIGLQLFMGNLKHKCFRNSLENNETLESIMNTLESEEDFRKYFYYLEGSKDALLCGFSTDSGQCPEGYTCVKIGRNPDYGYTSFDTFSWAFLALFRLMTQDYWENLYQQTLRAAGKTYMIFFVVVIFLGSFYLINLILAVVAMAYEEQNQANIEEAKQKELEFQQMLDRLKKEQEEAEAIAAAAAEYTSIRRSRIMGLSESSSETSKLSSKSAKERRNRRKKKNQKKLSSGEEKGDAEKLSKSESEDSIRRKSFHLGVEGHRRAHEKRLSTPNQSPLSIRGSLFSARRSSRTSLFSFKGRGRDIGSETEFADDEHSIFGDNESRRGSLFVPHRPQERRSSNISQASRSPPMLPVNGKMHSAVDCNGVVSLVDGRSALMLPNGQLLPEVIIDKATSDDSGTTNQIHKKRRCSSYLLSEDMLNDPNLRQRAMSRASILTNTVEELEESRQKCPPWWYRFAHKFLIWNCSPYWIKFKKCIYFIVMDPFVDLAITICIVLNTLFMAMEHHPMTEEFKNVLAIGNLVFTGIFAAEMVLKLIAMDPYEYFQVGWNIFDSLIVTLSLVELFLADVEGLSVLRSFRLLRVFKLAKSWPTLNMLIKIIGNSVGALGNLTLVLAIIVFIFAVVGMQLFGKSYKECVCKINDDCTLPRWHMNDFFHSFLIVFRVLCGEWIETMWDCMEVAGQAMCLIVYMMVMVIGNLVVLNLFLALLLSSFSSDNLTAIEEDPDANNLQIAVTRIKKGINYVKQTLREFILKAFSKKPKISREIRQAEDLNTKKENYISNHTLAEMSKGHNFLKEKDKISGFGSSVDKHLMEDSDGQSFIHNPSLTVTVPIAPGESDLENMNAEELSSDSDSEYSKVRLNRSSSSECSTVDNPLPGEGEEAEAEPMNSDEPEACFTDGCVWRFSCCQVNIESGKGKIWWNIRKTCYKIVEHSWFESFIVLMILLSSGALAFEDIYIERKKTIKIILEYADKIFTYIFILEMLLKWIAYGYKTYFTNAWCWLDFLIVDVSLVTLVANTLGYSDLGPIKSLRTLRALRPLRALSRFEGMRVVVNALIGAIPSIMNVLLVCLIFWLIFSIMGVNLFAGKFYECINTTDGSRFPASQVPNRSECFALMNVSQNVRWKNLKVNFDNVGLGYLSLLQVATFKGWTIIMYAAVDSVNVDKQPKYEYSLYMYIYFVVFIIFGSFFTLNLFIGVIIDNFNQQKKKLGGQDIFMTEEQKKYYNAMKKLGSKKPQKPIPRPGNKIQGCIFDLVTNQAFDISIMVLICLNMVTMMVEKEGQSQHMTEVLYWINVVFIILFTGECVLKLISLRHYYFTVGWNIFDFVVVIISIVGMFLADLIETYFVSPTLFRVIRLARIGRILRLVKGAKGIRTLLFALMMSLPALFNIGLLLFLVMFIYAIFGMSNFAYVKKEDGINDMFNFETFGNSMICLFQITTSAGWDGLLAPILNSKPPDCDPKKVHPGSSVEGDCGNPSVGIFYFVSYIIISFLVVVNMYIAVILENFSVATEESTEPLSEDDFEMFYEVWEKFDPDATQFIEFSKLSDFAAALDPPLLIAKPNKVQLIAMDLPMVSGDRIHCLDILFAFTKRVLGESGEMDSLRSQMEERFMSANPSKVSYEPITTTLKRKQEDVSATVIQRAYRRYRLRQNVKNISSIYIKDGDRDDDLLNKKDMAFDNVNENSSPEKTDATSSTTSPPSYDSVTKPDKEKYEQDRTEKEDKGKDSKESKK
T7 sequence (P30926 22-498): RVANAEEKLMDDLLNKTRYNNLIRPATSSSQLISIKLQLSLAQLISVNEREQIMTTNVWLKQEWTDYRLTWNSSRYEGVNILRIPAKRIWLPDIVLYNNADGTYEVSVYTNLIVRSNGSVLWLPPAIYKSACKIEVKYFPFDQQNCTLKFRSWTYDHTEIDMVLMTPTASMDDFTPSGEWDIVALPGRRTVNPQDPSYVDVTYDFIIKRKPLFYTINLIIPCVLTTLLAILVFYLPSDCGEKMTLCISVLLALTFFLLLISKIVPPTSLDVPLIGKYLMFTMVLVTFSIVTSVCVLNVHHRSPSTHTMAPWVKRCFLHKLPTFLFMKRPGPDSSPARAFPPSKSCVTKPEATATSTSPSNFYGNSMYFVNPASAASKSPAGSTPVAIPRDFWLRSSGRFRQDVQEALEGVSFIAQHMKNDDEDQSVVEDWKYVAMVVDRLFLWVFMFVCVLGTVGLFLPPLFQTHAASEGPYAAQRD
T7 sequence (P32297 32-505): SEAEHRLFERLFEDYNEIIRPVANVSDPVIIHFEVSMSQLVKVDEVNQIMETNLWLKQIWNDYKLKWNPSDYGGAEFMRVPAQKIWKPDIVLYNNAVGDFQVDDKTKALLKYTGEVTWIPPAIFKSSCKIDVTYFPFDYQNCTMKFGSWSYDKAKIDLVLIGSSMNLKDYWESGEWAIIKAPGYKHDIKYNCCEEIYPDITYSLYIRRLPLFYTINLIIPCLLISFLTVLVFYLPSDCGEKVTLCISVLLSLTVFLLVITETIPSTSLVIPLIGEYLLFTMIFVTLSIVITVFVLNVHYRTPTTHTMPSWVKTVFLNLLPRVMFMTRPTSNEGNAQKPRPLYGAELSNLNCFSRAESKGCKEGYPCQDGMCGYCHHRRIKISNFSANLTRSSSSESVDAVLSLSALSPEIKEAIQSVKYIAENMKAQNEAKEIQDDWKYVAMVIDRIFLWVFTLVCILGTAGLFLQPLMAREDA

## 20 (GSQIDTNVKCSGSSKCVKICIDRYNTRGAKCINGRCTCYP) [compound 20]
TRPA1; peptide at 0.2 μM
  Activity of TRPA1 with peptide, expressed as a percentage of the reference compound: 114%
TRPA1; peptide at 20 μM
  Activity of TRPA1 with peptide (percentage of the reference compound): 114%
Kir2.1; peptide at 0.2 μM
  Activity of Kir2.1 with peptide, expressed as a percentage of the reference compound: 89%
Kir2.1; peptide at 20 μM
  Activity of Kir2.1 with peptide (percentage of the reference compound): 95%
GABA; peptide at 0.2 μM
  Activity of GABA with peptide, expressed as a percentage of the reference compound: 109%
GABA; peptide at 20 μM
  Activity of GABA with peptide (percentage of the reference compound): 106%
Nav1.7; [1]
  Activity of Nav1.7 with peptide, expressed as a percentage of the reference compound: 92%
  Activity of Nav1.7 with peptide (percentage of the reference compound): 81%
Nav1.7; [2]
  Activity of Nav1.7 with peptide, expressed as a percentage of the reference compound: 59%
  Activity of Nav1.7 with peptide (percentage of the reference compound): 95%
Cav2.1; peptide at 0.2 μM
  Activity of Cav2.1 with peptide, expressed as a percentage of the reference compound: 100%
Cav2.1; peptide at 20 μM
  Activity of Cav2.1 with peptide (percentage of the reference compound): 116%
Kv2.1; peptide at 0.2 μM
  Activity of Kv2.1 with peptide, expressed as a percentage of the reference compound: 99%
Kv2.1; peptide at 20 μM
  Activity of Kv2.1 with peptide (percentage of the reference compound): 97%
Cav2.2; peptide at 0.2 μM
  Activity of Cav2.2 with peptide, expressed as a percentage of the reference compound: 110%
Cav2.2; peptide at 20 μM
  Activity of Cav2.2 with peptide (percentage of the reference compound): 105%
Nav1.5; [3]
  Activity of Nav1.5 with peptide, expressed as a percentage of the reference compound: 103%
  Activity of Nav1.5 with peptide (percentage of the reference compound): 102%
Nav1.5; [4]
  Activity of Nav1.5 with peptide, expressed as a percentage of the reference compound: 101%
  Activity of Nav1.5 with peptide (percentage of the reference compound): 105%
hERG; peptide at 0.2 μM
  Activity of hERG with peptide, expressed as a percentage of the reference compound: 90%
hERG; peptide at 20 μM
  Activity of hERG with peptide (percentage of the reference compound): 87%
α3β4; peptide at 0.2 μM
  Activity of a3b4 with peptide, expressed as a percentage of the reference compound: 103%
α3β4; peptide at 20 μM
  Activity of a3b4 with peptide (percentage of the reference compound): 94%
NR2B; peptide at 0.2 μM
  Activity of NR2B with peptide, expressed as a percentage of the reference compound: 104%
NR2B; peptide at 20 μM
  Activity of NR2B with peptide (percentage of the reference compound): 92%
TRPV1; peptide at 0.2 μM
  Activity of TRPV1 with peptide, expressed as a percentage of the reference compound: 109%
TRPV1; peptide at 20 μM
  Activity of TRPV1 with peptide (percentage of the reference compound): 102%
Kv1.2; peptide at 0.2 μM
  Activity of Kv1.2 with peptide, expressed as a percentage of the reference compound: 115%
Kv1.2; peptide at 20 μM
  Activity of Kv1.2 with peptide (percentage of the reference compound): 74%
Kv1.3; peptide at 0.2 μM
  Activity of Kv1.3 with peptide, expressed as a percentage of the reference compound: 80%
Kv1.3; peptide at 20 μM
  Activity of Kv1.3 with peptide (percentage of the reference compound): 7%
Kv1.1; peptide at 0.2 μM
  Activity of Kv1.1 with peptide, expressed as a percentage of the reference compound: 94%
Kv1.1; peptide at 20 μM
  Activity of Kv1.1 with peptide (percentage of the reference compound): 95%
5HT3a
  Activity of 5HT3a with peptide (percentage of the reference compound): 91%
  Activity of 5HT3a with peptide, expressed as a percentage of the reference compound: 96%
α4β2; peptide at 0.2 μM
  Activity of a4b2 with peptide, expressed as a percentage of the reference compound: 113%
α4β2; peptide at 20 μM
  Activity of a4b2 with peptide (percentage of the reference compound): 92%
NR2A; peptide at 0.2 μM
  Activity of NR2A with peptide, expressed as a percentage of the reference compound: 98%
NR2A; peptide at 20 μM
  Activity of NR2A with peptide (percentage of the reference compound): 104%
